From patent US20190203302A1, “BIOMARKER C[…]-1 AS ACTIVE INGREDIENT, FOR DIAGNOSIS OF RADIATION-RESISTANT CANCER OR PREDICTION OF RADIATION THERAPY PROGNOSIS” (UNIVERSITY OF ULSAN FOUNDATION FOR INDUSTRY COOPERATION, priority 2016, published 2019)

Target: T1, LRP-1 (Homo sapiens, UniProt Q07954)
T1 construct: Proteins were extracted from colon cancer tissues of each case according to radiation irradiation; from tissue; host or cells: patient colon cancer tissue (0 Gy / 2 Gy) transplanted and subcultured in nude mice
T1 sequence (Q07954 20-4544): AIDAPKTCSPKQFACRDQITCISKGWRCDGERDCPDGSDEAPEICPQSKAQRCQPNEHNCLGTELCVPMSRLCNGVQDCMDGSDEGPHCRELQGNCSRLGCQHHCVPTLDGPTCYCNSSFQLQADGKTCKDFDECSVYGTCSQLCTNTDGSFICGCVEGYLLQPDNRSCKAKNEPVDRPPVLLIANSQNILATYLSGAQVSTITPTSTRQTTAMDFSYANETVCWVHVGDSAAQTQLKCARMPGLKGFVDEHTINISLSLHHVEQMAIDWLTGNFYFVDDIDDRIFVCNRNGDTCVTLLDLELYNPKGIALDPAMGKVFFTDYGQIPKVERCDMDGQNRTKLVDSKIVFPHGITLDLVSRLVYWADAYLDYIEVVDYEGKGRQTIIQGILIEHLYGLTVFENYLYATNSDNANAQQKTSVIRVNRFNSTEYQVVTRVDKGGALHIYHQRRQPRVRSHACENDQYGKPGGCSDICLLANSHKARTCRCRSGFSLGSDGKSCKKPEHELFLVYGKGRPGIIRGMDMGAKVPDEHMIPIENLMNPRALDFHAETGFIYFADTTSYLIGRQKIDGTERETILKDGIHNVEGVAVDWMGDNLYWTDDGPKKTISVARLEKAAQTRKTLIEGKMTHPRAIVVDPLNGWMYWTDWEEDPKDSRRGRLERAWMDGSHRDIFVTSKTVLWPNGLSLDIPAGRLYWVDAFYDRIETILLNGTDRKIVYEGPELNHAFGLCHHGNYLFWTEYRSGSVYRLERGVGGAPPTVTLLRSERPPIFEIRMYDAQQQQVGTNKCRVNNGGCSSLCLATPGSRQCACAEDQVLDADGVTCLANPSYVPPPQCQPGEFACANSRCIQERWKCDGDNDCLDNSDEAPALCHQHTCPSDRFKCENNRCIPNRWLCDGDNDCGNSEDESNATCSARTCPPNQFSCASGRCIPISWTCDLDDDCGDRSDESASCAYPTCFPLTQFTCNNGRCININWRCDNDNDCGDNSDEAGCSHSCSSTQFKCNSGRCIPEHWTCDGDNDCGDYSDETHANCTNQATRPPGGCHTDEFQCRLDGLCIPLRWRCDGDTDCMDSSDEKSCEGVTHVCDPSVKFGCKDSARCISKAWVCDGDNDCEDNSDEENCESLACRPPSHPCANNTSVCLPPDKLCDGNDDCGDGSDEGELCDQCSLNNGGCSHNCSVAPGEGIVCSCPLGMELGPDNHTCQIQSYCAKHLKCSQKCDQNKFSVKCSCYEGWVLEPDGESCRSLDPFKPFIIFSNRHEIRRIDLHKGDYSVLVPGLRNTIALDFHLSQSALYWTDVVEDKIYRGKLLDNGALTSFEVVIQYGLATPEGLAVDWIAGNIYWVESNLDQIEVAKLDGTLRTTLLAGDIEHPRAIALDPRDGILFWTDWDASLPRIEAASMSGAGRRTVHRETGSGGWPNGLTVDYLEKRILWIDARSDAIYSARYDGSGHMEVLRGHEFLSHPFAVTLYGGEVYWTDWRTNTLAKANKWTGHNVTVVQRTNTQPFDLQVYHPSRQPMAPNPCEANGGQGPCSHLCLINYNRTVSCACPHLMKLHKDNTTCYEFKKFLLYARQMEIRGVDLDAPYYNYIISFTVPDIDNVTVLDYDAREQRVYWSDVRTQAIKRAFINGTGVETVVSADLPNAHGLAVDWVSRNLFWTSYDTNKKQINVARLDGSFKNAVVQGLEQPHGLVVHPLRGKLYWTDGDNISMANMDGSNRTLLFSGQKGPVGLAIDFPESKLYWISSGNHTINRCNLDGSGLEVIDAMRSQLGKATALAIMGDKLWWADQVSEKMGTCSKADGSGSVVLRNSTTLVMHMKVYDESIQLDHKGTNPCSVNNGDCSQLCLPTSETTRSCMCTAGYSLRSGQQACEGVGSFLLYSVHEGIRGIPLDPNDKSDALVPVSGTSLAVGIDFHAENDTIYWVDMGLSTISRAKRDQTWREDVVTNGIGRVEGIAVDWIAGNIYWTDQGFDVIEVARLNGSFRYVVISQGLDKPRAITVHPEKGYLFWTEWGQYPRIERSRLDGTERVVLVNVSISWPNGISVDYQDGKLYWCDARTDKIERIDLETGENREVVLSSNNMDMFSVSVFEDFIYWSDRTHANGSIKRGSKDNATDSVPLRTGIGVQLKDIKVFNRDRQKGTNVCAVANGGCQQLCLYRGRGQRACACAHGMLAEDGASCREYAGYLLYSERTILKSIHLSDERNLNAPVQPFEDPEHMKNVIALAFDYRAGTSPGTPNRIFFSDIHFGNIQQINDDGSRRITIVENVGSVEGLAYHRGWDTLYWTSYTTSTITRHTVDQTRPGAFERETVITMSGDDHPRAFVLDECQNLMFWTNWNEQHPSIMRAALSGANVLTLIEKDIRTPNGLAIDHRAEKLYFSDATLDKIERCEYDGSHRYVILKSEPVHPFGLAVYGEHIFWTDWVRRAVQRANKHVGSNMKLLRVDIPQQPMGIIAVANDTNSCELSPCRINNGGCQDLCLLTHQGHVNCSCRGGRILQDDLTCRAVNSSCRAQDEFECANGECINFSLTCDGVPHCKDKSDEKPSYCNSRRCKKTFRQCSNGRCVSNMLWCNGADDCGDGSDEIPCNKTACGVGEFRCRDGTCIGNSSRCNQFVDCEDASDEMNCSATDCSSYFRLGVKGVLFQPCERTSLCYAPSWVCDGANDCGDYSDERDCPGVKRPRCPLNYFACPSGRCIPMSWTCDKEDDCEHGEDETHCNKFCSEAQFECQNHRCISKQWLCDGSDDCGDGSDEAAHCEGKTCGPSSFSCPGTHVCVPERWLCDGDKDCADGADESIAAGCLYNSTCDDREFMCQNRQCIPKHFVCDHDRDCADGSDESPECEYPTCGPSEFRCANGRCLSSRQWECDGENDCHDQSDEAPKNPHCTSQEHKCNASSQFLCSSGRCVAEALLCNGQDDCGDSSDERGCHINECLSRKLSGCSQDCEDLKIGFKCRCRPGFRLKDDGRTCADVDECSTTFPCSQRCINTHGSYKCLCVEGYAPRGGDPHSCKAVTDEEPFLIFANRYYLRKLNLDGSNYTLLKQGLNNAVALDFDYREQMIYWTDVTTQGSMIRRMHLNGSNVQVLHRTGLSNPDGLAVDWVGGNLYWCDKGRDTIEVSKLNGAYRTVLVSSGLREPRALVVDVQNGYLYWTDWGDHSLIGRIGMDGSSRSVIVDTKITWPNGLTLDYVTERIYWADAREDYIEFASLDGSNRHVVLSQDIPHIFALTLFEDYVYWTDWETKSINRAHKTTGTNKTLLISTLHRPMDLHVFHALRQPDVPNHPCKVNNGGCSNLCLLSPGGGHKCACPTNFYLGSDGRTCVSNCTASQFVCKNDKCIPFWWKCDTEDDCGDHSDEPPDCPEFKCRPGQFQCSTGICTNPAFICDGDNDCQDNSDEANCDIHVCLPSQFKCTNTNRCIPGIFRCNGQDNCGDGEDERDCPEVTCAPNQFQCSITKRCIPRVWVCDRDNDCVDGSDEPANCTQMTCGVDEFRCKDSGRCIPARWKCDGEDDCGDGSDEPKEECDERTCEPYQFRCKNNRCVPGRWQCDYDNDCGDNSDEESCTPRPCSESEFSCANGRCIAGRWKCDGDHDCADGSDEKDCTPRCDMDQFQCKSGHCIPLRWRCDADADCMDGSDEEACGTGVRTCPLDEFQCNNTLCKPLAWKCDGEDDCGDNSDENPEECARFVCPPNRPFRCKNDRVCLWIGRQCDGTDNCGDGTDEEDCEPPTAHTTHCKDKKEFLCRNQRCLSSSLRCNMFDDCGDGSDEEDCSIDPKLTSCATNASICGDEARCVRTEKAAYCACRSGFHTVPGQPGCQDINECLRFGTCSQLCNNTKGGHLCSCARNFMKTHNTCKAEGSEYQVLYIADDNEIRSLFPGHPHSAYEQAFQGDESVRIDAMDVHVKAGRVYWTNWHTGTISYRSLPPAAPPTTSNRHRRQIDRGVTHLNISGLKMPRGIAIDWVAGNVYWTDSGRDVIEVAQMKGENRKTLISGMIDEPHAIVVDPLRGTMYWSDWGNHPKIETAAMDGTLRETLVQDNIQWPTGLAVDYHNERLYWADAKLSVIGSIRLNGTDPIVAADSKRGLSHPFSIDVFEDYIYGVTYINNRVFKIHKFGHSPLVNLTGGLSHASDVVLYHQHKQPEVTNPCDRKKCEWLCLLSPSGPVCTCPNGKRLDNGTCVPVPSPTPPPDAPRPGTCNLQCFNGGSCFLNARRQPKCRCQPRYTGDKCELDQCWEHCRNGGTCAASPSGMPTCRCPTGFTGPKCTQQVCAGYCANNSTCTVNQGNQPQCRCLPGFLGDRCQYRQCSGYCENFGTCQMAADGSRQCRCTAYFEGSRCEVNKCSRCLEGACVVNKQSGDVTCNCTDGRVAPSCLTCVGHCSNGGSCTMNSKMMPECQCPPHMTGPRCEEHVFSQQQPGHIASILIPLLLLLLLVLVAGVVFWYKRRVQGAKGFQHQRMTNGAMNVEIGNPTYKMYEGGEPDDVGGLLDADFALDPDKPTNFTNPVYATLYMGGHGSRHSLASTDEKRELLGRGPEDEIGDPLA
Assay: Immunoprecipitation assay of TPSFSKI peptide phage and LRP-1, confirmed by western blotting
Assay type: binding
Conditions: proteins extracted from colon cancer tissues, 0 Gy/2 Gy irradiation, LRP-1 and M13 antibodies, IgG beads
Description: Lysate: 0 Gy/2 Gy protein extracted from radiation colon cancer tissue, IP (B5 phage): 0 Gy/2 Gy Immunoprecipitation with a specific peptide phage in protein extracted from radiation colon cancer tissue, IP (wt phage): 0 Gy/2 Gy Immunoprecipitation in protein extracted from radiation colon cancer tissue with phage without peptide, IP (w/o Ab): 0 Gy/2 Gy Immunoprecipitation without antibody in protein extracted from radiation colon cancer tissue, phage lysate: protein extracted from peptide phage targeting by irradiation in radiation resistant colon cancer tissue, Antibody: LRP-1 antibody
Based on the indirect verification that LRP-1 is a binding partner protein of the TPSFSKI peptide sequence in Examples 3 to 5, an immunoprecipitation assay was performed to directly determine whether […] was bound to the TPSFSKI sequence. Proteins were extracted from colon cancer tissues of each case according to radiation irradiation, and immunoprecipitation was performed using LRP-1 and M13 antibodies and IgG beads.

TPSFSKI [TPSFSKI peptide, used as peptide phage]
binding of LRP-1 to the TPSFSKI sequence (immunoprecipitation): LRP-1 is a binding partner protein of TPSFSKI peptide
